Source: PMC9488787
Read-outs that look alike come from different tables or passages of the source.

Q: What does the source list for “Hrq1: Hrq1-7KR (K164R, K219R, K221R, K366R, K839R, K872R, K938R)”?
A: degradation_or_half_life (ubiquitination at K164): decreases; expression_or_secretion (ubiquitination at K164): no change; degradation_or_half_life (ubiquitination at K219): decreases; expression_or_secretion (ubiquitination at K219): no change; degradation_or_half_life (ubiquitination at K221): decreases; expression_or_secretion (ubiquitination at K221): no change; degradation_or_half_life (ubiquitination at K366): decreases; expression_or_secretion (ubiquitination at K366): no change; degradation_or_half_life (ubiquitination at K839): decreases; expression_or_secretion (ubiquitination at K839): no change; degradation_or_half_life (ubiquitination at K872): decreases; expression_or_secretion (ubiquitination at K872): no change; degradation_or_half_life (ubiquitination at K938): decreases; expression_or_secretion (ubiquitination at K938): no change
